From patent US20040242853A1 come the findings set out here.

The subject of series [1] is GLP-1 (7-36) amide.
Series [2] has as its system GLP-1 6-aminohexanoic acid8.
The target in series [3] is human GLP-1 receptor (CHO cells stably transfected with the human GLP-1 receptor) (human) (UniProt P43220). In words: displacement of 125I-GLP-1 from intact CHO/GLP-1R cells (Example 9). (Loss of bound radioactivity is the signal in a displacement assay; it reports binding, not function.)
The target in series [4] is T1, human GLP-1 receptor (CHO cells stably transfected with the human GLP-1 receptor) (human), P43220.
T1 chain: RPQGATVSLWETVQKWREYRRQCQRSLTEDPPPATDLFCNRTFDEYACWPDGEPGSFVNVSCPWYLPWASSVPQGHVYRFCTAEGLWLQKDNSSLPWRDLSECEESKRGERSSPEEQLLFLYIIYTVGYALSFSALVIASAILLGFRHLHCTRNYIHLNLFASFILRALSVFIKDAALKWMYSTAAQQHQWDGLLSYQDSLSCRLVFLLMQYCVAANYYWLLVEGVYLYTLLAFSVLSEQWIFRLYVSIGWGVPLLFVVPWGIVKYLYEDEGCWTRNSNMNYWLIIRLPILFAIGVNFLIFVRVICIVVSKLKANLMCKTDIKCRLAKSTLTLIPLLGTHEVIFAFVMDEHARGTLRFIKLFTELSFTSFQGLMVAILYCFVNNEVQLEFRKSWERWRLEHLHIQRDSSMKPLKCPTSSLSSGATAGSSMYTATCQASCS
The series is described as follows: cell-based or functional assay.

Series [5] concerns the target T1, human GLP-1 receptor (CHO cells stably …). In words: displacement of 125I-GLP-1 from intact CHO/GLP-1R cells (Example 9).

Square brackets hold non-standard residues; d marks the D form. Ends that are not written are not given here. Ahx = NCCCCCC(=O)O

For the molecule “recombinant DPPIV (dipeptidyl peptidase IV)”, the entries for the “N-terminal truncated product measured by MALDI-TOF” value in series [1] and in series [2] were “caused a considerable increase in the amount of N-terminal truncated product (Mr=3089 gmol-1) as measured by MALDI” and “In contrast GLP-1 Aha^8 (2 µM) appeared resistant to either treatment”, respectively.

As for “Exendin (1-35) (peptide; other documents disagree on this pair)”, the IC50 in series [3] came out at 0.007 µM.

B1: GLP-1 6-aminohexanoic acid8 (peptide)
peptide: H[Ahx]AEGTFTSDVSSYLEGQAAKEFIAWLVKGR
modifications: ends and bridges not checked
As to B1, the intracellular cAMP production in CHO/GLP-1R cells (fold above basal) in series [4] worked out at 4.

B2: GLP-1 Gly8(7-36) Exendin(31-39) (peptide)
peptide: HGEGTFTSDVSSYLEGQAAKEFIAWLVKGRPSSGAPPPS
modifications: not checked
Take B2: the IC50 in series [5] stood at 0.074 µM.

One may read the IC50 as the midpoint of a concentration-inhibition curve. Low readings indicate inhibition by little substance, high ones a need for much substance.
